Test results from patent publication US20260092084A1, “PEPTIDE AND ASSEMBLY OR COMPOSITION CONTAINING SAID PEPTIDE” (priority 2022, published 2026).
Square brackets hold non-standard residues; d marks the D form. Ends that are not written are not given here. * marks the point of attachment. 5(6)‑FAM = 5(6)-carboxyfluorescein; pS = N[C@@H](COP(=O)(O)O)C(=O)O; Tfa = O=C(C(F)(F)F)*

Tests used:
[1] = mouse, in vivo
Procedure: Three kinds of fluorescein (FAM)-labeled peptides shown in Table 7 were purchased from Eurofins Genomics K.K. 1 mg of each of the peptides was separately dissolved in 4 mL of PBS to prepare an administration solution (0.25 mg/mL).
Eighteen Crl:CD1 (ICR) mice (male) (Jackson Laboratory Japan, Inc.) were subjected to 7 or more days of adaptation after their arrival and receipt, then divided by three per group into the six groups as in Table 8, and used in the following experiments. The administration solution (1 mg/4 mL/kg) was administered to the tail vein of a non-fasting mouse through use of a syringe equipped with an injection needle. A dose for each individual was calculated from a body weight measured on the day of the administration.
After the completion of the administration, about 0.1 mL of blood was collected from a jugular vein without anesthesia at the predetermined time points of collection shown in Table 8 through use of a heparin-treated syringe equipped with an injection needle. At the final time point of collection, whole blood was collected from a posterior aorta under isoflurane anesthesia. The collected blood was promptly transferred to a polypropylene tube and cooled on ice. The collected whole blood was centrifuged (about 10,000×g, 3 minutes, 4° C.), and the plasma sample was promptly dispensed and light-shielded in a sample storage container. The plasma samples were cryopreserved until measurement (control temperature: about −80° C.).
A freeze-thawed plasma sample (10 μL) was diluted 10-fold with PBS (90 μL), and measured for its fluorescence intensity with a plate reader (SPARK™ multi-detection mode microplate reader, Tecan Group Ltd.) (excitation wavelength: 495 nm; emission wavelength: 520 nm). […] The peptide concentrations in plasma thus obtained were logarithmically plotted against post-administration time, four time points including the final blood collection point were exponentially approximated (Microsoft Excel, Microsoft Corporation), and an elimination half-life was calculated from a slope of the straight line. […]

[2] = Average particle diameter of peptide assembly by dynamic light scattering; format: physicochemical; conditions: 10 mM HEPES, 150 mM NaCl buffer (pH 7); 40 mM DMSO stock diluted 100-fold; stood overnight; 25° C.; main peak of scattering intensity
Procedure: 5 mg of each of the peptides of Examples 1-1 to 1-5 and Reference Examples 1-1 to 1-8 was dissolved in dimethyl sulfoxide (DMSO) to provide a stock solution (40 mM). To a 10 mM HEPES and 150 mM NaCl buffer (pH 7) under stirring with a micromixer (E-36, Taitec Corporation), 4 μL of the stock solution was dropped to be diluted 100-fold. The dilution was vortexed and then left to stand still at room temperature overnight. Then, 200 μL of the dilution was used as a measurement sample and measurement of particle diameter distribution was performed at 25° C. by dynamic light scattering with Litesizer 500 (Anton Paar GmBH). The results determined by defining the main peak of a scattering intensity as the average particle diameter of an assembly are shown in Table 3. Provided that, when a polydispersity index was more than 20%, the main peak was determined with further reference to a volume-based particle diameter distribution.

[3] = Binding affinity to first target (HA): adsorption isotherm on hydroxyapatite beads; conditions: hydroxyapatite magnetic beads; 10 mM HEPES (pH 7.4)/1% DMSO; 4° C., 4 hours; tryptophan fluorescence; read-out: Dissociation constant (KD)
Procedure: The peptides of Examples 1-2 and 1-5 and a HA-binding peptide A (DSpSEEKW: SEQ ID NO: 17) forming the HA binding site of each of the peptides were each evaluated for peptide binding affinity to hydroxyapatite beads (1 μm BcMag™ Hydroxyapatite Magnetic Particles (Bioclone Inc., catalog No. FO-101)). Specifically, the beads were weighed and suspended in a 100 mM sodium phosphate buffer (pH 7.4)/20% ethanol so as to have 30 mg/mL. 267 μL of the suspension of the beads ultrasonicated to be dispersed homogenously was dispensed in a 1.5 mL tube. The beads were fixed with a magnetic stand (Takara Bio Inc., Magnetic Stand (6 tubes), product code: 5328), followed by removal of a supernatant, and then 100 μL of a peptide solution was added. The peptide solution was prepared by diluting the 100 mM stock solution (in DMSO) to 40 μM with 10 mM HEPES (pH 7.4)/1% DMSO and further serially diluting the solution from 4-fold to 5-fold. After stirring at 4° C. for 4 hours, the tube was stood in the magnetic stand for fixing the beads, and a supernatant was recovered. A peptide concentration in the supernatant was measured with a plate reader (VARIO-SCAN, Thermo Fischer Scientific Inc.) based on a fluorescence intensity derived from tryptophan in a sequence (excitation wavelength: 280 nm; emission wavelength: 355 nm) through use of 50 μL of the supernatant. The amount of the peptide bound to the beads was determined by subtracting the peptide concentration in the supernatant from a total peptide concentration, and the adsorption isotherm thus obtained was subjected to curve fitting to a theoretical formula (Microsoft Excel, Microsoft Corporation), thereby determining a dissociation constant KD of the peptide to the hydroxyapatite beads.

[4] = molecular target: Arg-gingipain (Rgp); test: Binding affinity to second target (Rgp) by SPR (Biacore-T100); conditions: immobilized Rgp, 10 mM HEPES (pH 7.4), 150 mM NaCl, 0.05% Tween, 0.2% DMSO, peptide 25-1,600 nM, read-out: Dissociation constant (KD)
Procedure: The peptide of Example 1-2 and an Rgp-binding peptide A (RRKRR: SEQ ID NO: 16) forming the Rgp binding site of the peptide were each measured for its binding affinity to Rgp by SPR using “Biacore-T100” (GE Healthcare). The measurement was performed according to a common method. Specifically, the measurement of the peptide of Example 1-2 was performed through bonding streptavidin (Extravidin SIGMA E2511) to a chip (CM5 sensor chip) by amine coupling, and then immobilizing Rgp biotinylated with a 20-fold molar ratio of an NHS-biotinylation reagent (EZ-Link™ Sulfo-NHS-SS-Biotin, Thermo Fischer Scientific Inc.). Meanwhile, the measurement of the Rgp-binding peptide A was performed through directly immobilizing Rgp on a CM5 sensor chip by amine coupling from the viewpoint of measurement sensitivity.
Next, the peptide stock solution (in DMSO) was diluted with a running buffer (10 mM HEPES (pH 7.4), 150 mM NaCl, 0.05% Tween, 0.2% DMSO) to prepare peptide solutions having final peptide concentrations of 25 nM, 100 nM, 400 nM, and 1,600 nM. Those peptide solutions having the four concentrations were used to provide sensorgrams indicating weight changes caused by binding between Rgp immobilized on the chip and the peptide. […]

[5] = pH dependency of particle diameter of peptide assembly (dynamic light scattering); format: physicochemical; conditions: 25° C.; for Average particle diameter, pH 6: 10 mM MES, 150 mM NaCl buffer (pH 6.0); for Average particle diameter, pH 7: dilution A (pH 6.0) diluted with 10 mM HEPES, 150 mM NaCl buffer (pH 7.4)
Procedure: 5 mg of each of the peptides of Examples 2-1 and 2-2 was dissolved in DMSO to provide a stock solution (50 mg/mL). To a 10 mM MES and 150 mM NaCl buffer (pH 6.0) under stirring with a micromixer (E-36, Taitec Corporation), 4 μL of the stock solution was dropped to be diluted 100-fold. Thus, a dilution A was obtained. The dilution A was vortexed and then left to stand still at room temperature overnight. 100 μL of the dilution A was used and diluted with 300 μL of the same MES buffer or a 10 mM HEPES and 150 mM NaCl buffer (pH 7.4), and stirred for 1 hour. Thus, a dilution B was obtained. 200 μL of each of the dilution A and the dilution B after having been left to stand still overnight was used as a measurement sample and measurement of particle diameter distribution was performed at 25° C. with Litesizer 500 (Anton Paar GmBH).

[6] = molecular target: Arg-gingipain (Rgp); test: SPR (Biacore T100); Rgp amine-coupled directly to CM5 chip; peptide as analyte at 25-1,600 nM
[7] = molecular target: Arg-gingipain (Rgp); test: SPR (Biacore T100); biotinylated Rgp captured on streptavidin-coupled CM5 chip; peptide as analyte at 25-1,600 nM; KD per peptide

Molecule: 5(6)-FAM-GYSEWRKWEL ({5(6)‑FAM}-GYSEWRKWEL-NH2) [Comparative Example 1]
- Elimination half-life [1]: 1.3 h

Molecule: 5(6)-FAM-GYSEWRKWEL-LLLLLL ({5(6)‑FAM}-GYSEWRKWELLLLLLL-NH2) [Comparative Example 2]
- Elimination half-life [1]: 16.7 h

Molecule: 5(6)-FAM-GYSEWRKWEL-LLLLLLGG-HWRGWV ({5(6)‑FAM}-GYSEWRKWELLLLLLLGGHWRGWV-NH2) [Example 3-1]
- Elimination half-life [1]: 133 h

Molecule: DSpSEEK-AAEAAEAA-RRK(Tfa)RR (DS[pS]EEKAAEAAEAARRK(Tfa)RR-NH2; N-terminus assumed; SMILES C[C@H](NC(=O)[C@H](C)NC(=O)[C@H](CCC(=O)O)NC(=O)[C@H](C)NC(=O)[C@H](C)NC(=O)[C@H](CCCCN)NC(=O)[C@H](CCC(=O)O)NC(=O)[C@H](CCC(=O)O)NC(=O)[C@H](COP(=O)(O)O)NC(=O)[C@H](CO)NC(=O)[C@@H](N)CC(=O)O)C(=O)N[C@@H](CCC(=O)O)C(=O)N[C@@H](C)C(=O)N[C@@H](C)C(=O)N[C@@H](CCCNC(=N)N)C(=O)N[C@@H](CCCNC(=N)N)C(=O)N[C@@H](CCCCNC(=O)C(F)(F)F)C(=O)N[C@@H](CCCNC(=N)N)C(=O)N[C@@H](CCCNC(=N)N)C(N)=O) [Example 1-4]
- Average particle diameter [2]: 450 nm

Molecule: DSpSEEKW (DS[pS]EEKW) [HA-binding peptide A, reference compound]
- Kd [3]: 710 nM

Molecule: DSpSEEKW-LLELLELL-KGKILRPR (DS[pS]EEKWLLELLELLKGKILRPR-NH2; N-terminus assumed; SMILES CC[C@H](C)[C@H](NC(=O)[C@H](CCCCN)NC(=O)CNC(=O)[C@H](CCCCN)NC(=O)[C@H](CC(C)C)NC(=O)[C@H](CC(C)C)NC(=O)[C@H](CCC(=O)O)NC(=O)[C@H](CC(C)C)NC(=O)[C@H](CC(C)C)NC(=O)[C@H](CCC(=O)O)NC(=O)[C@H](CC(C)C)NC(=O)[C@H](CC(C)C)NC(=O)[C@H](Cc1c[nH]c2ccccc12)NC(=O)[C@H](CCCCN)NC(=O)[C@H](CCC(=O)O)NC(=O)[C@H](CCC(=O)O)NC(=O)[C@H](COP(=O)(O)O)NC(=O)[C@H](CO)NC(=O)[C@@H](N)CC(=O)O)C(=O)N[C@@H](CC(C)C)C(=O)N[C@@H](CCCNC(=N)N)C(=O)N1CCC[C@H]1C(=O)N[C@@H](CCCNC(=N)N)C(N)=O) [Example 1-5]
- Kd [3]: < 40 nM
- Average particle diameter [2]: 5 nm

Molecule: DSpSEEKW-LLELLELL-RRKRR (DS[pS]EEKWLLELLELLRRKRR-NH2; N-terminus assumed; SMILES CC(C)C[C@H](NC(=O)[C@H](CC(C)C)NC(=O)[C@H](CCC(=O)O)NC(=O)[C@H](CC(C)C)NC(=O)[C@H](CC(C)C)NC(=O)[C@H](CCC(=O)O)NC(=O)[C@H](CC(C)C)NC(=O)[C@H](CC(C)C)NC(=O)[C@H](Cc1c[nH]c2ccccc12)NC(=O)[C@H](CCCCN)NC(=O)[C@H](CCC(=O)O)NC(=O)[C@H](CCC(=O)O)NC(=O)[C@H](COP(=O)(O)O)NC(=O)[C@H](CO)NC(=O)[C@@H](N)CC(=O)O)C(=O)N[C@@H](CCCNC(=N)N)C(=O)N[C@@H](CCCNC(=N)N)C(=O)N[C@@H](CCCCN)C(=O)N[C@@H](CCCNC(=N)N)C(=O)N[C@@H](CCCNC(=N)N)C(N)=O) [Example 1-2]
- Kd [4]: 1.3 nM
- Kd [3]: 1400 nM
- Average particle diameter [2]: 250 nm

Molecule: DSpSEEKW-WEWWEWW-RRK(Tfa)RR (DS[pS]EEKWWEWWEWWRRK(Tfa)RR-NH2; N-terminus assumed; SMILES N=C(N)NCCC[C@H](NC(=O)[C@H](CCCNC(=N)N)NC(=O)[C@H](CCCCNC(=O)C(F)(F)F)NC(=O)[C@H](CCCNC(=N)N)NC(=O)[C@H](CCCNC(=N)N)NC(=O)[C@H](Cc1c[nH]c2ccccc12)NC(=O)[C@H](Cc1c[nH]c2ccccc12)NC(=O)[C@H](CCC(=O)O)NC(=O)[C@H](Cc1c[nH]c2ccccc12)NC(=O)[C@H](Cc1c[nH]c2ccccc12)NC(=O)[C@H](CCC(=O)O)NC(=O)[C@H](Cc1c[nH]c2ccccc12)NC(=O)[C@H](Cc1c[nH]c2ccccc12)NC(=O)[C@H](CCCCN)NC(=O)[C@H](CCC(=O)O)NC(=O)[C@H](CCC(=O)O)NC(=O)[C@H](COP(=O)(O)O)NC(=O)[C@H](CO)NC(=O)[C@@H](N)CC(=O)O)C(N)=O) [Example 1-3]
- Average particle diameter [2]: 350 nm

Molecule: GRSHHKRK-LLELLELL-HRHHVQER (GRSHHKRKLLELLELLHRHHVQER; a peptide designed to have two hydrophilic regions and a hydrophobic region located therebetween) [Example 2-1]
- Average particle diameter, pH 6 [5]: 440 nm
- Average particle diameter, pH 7 [5]: 4 nm

Molecule: HHIRRKRQ-WWEWWEWW-HGDHHKSN (HHIRRKRQWWEWWEWWHGDHHKSN; a peptide designed to have two hydrophilic regions and a hydrophobic region located therebetween) [Example 2-2]
- Average particle diameter, pH 6 [5]: 4,400 nm
- Average particle diameter, pH 7 [5]: 210 nm

Molecule: KGKILRPR-AAAAAAAA (KGKILRPRAAAAAAAA-NH2) [1-8]
- Average particle diameter [2]: >1,000 nm

Molecule: KGKILRPR-AAEAAEAA (KGKILRPRAAEAAEAA-NH2) [1-7]
- Average particle diameter [2]: 520 nm

Molecule: KGKILRPR-FFFFFFFF (KGKILRPRFFFFFFFF-NH2) [1-4]
- Average particle diameter [2]: 50 nm

Molecule: KGKILRPR-LLELLELL (KGKILRPRLLELLELL-NH2) [Reference Example 1-5]
- Average particle diameter [2]: 5 nm

Molecule: KGKILRPR-LLLLLLLL (KGKILRPRLLLLLLLL-NH2) [1-1]
- Average particle diameter [2]: 36 nm

Molecule: KGKILRPR-WWEWWEWW (KGKILRPRWWEWWEWW-NH2) [1-6]
- Average particle diameter [2]: 10 nm

Molecule: KGKILRPR-WWWWWWWW (KGKILRPRWWWWWWWW-NH2) [1-3]
- Average particle diameter [2]: 920 nm

Molecule: KGKILRPR-YYYYYYYY (KGKILRPRYYYYYYYY-NH2) [1-2]
- Average particle diameter [2]: 210 nm

Molecule: RRKRR [Rgp-binding peptide A, reference compound]
- Kd [4]: 400 nM

Molecule: RRKRR [Rgp-binding peptide A (RRKRR)]
- Kd [6]: 400 nM

B1: peptide of Example 1-2 (DSpSEEKW-LLELLELL-RRKRR) (peptide)
peptide: DSSEEKWLLELLELLRRKRR
modifications: pS = phosphorylated serine (third residue of DSpSEEKW); C-terminal carboxyl group amidated
- Kd [7]: 1.3 nM
